Measurements published in paper PMC10145791.

Experiments:
VEGF-A165 (Homo sapiens) = VEGF-A165 (Homo sapiens) (UniProt P15692); settings: cited from earlier work
[1] = target: recombinant human neuropilin-1 (human) (UniProt O14786); experiment: SPR; SPRi, stage 1: mixtures of NRP-1 (1 ng/mL) with VEGF-A (0.01, 0.10, 1.00, 10.0 ng/mL) dropped onto the immobilised mouse monoclonal anti-NRP-1 antibody (200 ng/mL on cysteamine/gold); read-out is the free NRP-1 that the antibody captures (recovery %); pH 7.4, 10 min

| recovery of free NRP-1 (1 ng/mL added) on the antibody with 0.01 ng/mL VEGF-A [1] [%] | recovery of free NRP-1 (1 ng/mL added) on the antibody with 0.10 ng/mL VEGF-A [1] [%] | recovery of free NRP-1 (1 ng/mL added) on the antibody with 1.00 ng/mL VEGF-A [1] [%] | recovery of free NRP-1 (1 ng/mL added) on the antibody with 10.0 ng/mL VEGF-A [1] [%] | Substance | Kd (VEGF-A165 (Homo sapiens)) [nM] |
| --- | --- | --- | --- | --- | --- |
| – | – | – | – | neuropilin-1 soluble (from UniProt O14786) | 7.5 |
| 98 | 85 | 36 | < 1 | vascular endothelial growth factor VEGFA (from UniProt P15692 1-395) (ligand) | – |
